Data: US10253323B2, “Chloroplast transit peptides” (priority 2015, dated 2019)
Entries after “also recorded” stand apart in the source; their conditions may differ.

B1: Cry2Aa without a TraP: Cry2Aa protein expressed in Arabidopsis from control plasmid without a chloroplast transit peptide sequence upstream of the cry2Aa gene (protein, UniProt P0A377 1-633, looked up)
Pesticidal crystal protein …: MNNVLNSGRTTICDAYNVVAHDPFSFEHKSLDTIQKEWMEWKRTDHSLYVAPVVGTVSSFLLKKVGSLIGKRILSELWGIIFPSGSTNLMQDILRETEQFLNQRLNTDTLARVNAELIGLQANIREFNQQVDNFLNPTQNPVPLSITSSVNTMQQLFLNRLPQFQIQGYQLLLLPLFAQAANMHLSFIRDVILNADEWGISAATLRTYRDYLRNYTRDYSNYCINTYQTAFRGLNTRLHDMLEFRTYMFLNVFEYVSIWSLFKYQSLMVSSGANLYASGSGPQQTQSFTAQNWPFLYSLFQVNSNYILSGISGTRLSITFPNIGGLPGSTTTHSLNSARVNYSGGVSSGLIGATNLNHNFNCSTVLPPLSTPFVRSWLDSGTDREGVATSTNWQTESFQTTLSLRCGAFSARGNSNYFPDYFIRNISGVPLVIRNEDLTRPLHYNQIRNIESPSGTPGGARAYLVSVHNRKNNIYAANENGTMIHLAPEDYTGFTISPIHATQVNNQTRTFISEKFGNQGDSLRFEQSNTTARYTLRGNGNSYNLYLRVSSIGNSTIRVTINGRVYTVSNVNTTTNNDGVNDNGARFSDINIGNIVASDNTNVTLDINVTLNSGTPFDLMNIMFVPTNLPPLY
B2: TraP11: chimeric chloroplast transit peptide, SEQ ID NO:2; N-terminus Glycine max, C-terminus Brassica napus; tested fused to YFP (pDAB101980) (protein)
chain: MAQVSRVHNLAQSTQIFGHSSNSNKLKSVNSVSLKTHQPRASSWGLKKSGTMLNGSVIRPVKVTASVS
modifications: TraP11

Legend:
tobacco budworm (TBW) = assay: Insect bioassay of Cry2Aa Arabidopsis events, tobacco budworm; format: in vivo
Procedure: (§1) The effectiveness of the TraP11 chimeric chloroplast transit peptides on Cry2Aa protein expression in Arabidopsis thaliana was assessed. Transgenic Arabidopsis plants which contained TraP11 chimeric chloroplast transit peptides fused to the Cry2Aa protein were assayed for insect tolerance to soybean looper (SBL) and tobacco budworm (TBW).
(§2) A small aliquot of T2 seed (approx. 100-200 seeds) for each event were suspended in 40 mls of 0.1% agarose solution and cold stratified at 4° C. for 24 hrs. The stratified seeds were then sown by pipetting 10 ml of seed onto the surface of four flats in a propagation flat. The flats were filled with Sunshine #5 soil Media™ (Sun Gro; Bellevue, Wash.) and lightly covered with fine vermiculite. The trays were saturated in Hoagland's fertilizer prior to sowing and as needed afterward. After sowing, humidity domes were used to cover the trays and they were then placed into a Conviron™ growth chamber set at 24° C. with a 16 hr photo period. Incandescent and fluorescent lights provided a light level of 200 PAR. After 5 days the seeds germinated and the domes were removed. The first herbicide selection of transformants was on day 6 and the second on day 10. Liberty™ herbicide (a.i. glufosinate-ammonium) was applied using a DeVilbiss atomizer hand sprayer at a rate of 200 g ai/ha to remove nulls. Roughly 25% of the plants were nulls as expected. A row of wild type checks were also included in the selection and they had 100% mortality after two herbicide applications. At 14 days the plants were ready for transplanting. […] The flats were presoaked with Hoagland's fertilizer prior to transplant and afterward as needed. The transplants were propagated in a non-air conditioned green house set at 25° C. with 14 hours of supplemental light. Silique development was inhibited by trimming with scissors and thus created more plant tissue for testing. Plants were ready for DNA sampling at 16-18 days and ready for bio-assay at about 23 days. The putative transgenic plants were screened using molecular confirmation assays and identified events were advanced for protein analysis and bioassay results.
(§3) Both sets of T1 Arabidopsis events were tested in insect bioassay experiments. […] There was a correlation between protein expression and leaf protection against both SBL and TBW for Arabidopsis events expressing Cry2Aa without a TraP (r^2=0.49 [SBL], 0.23 [TBW]), and for Arabidopsis events expressing Cry2Aa with TraP11 (r^2=0.75 [SBL], 0.17 [TBW]). Resultantly, an increase in protein expression caused significant protection against leaf damage (Pr<0.05).

soybean looper (SBL) = assay: Insect bioassay of Cry2Aa Arabidopsis events, soybean looper; format: in vivo
Procedure: as §1, §2, §3

[1] = test system: chloroplasts of the tobacco leaf tissues; assay: Tobacco transient assay, confocal microscopy of TraP-YFP/GFP; format: cell-based, Nicotiana tabacum; conditions: TraP-YFP or TraP-GFP fusion, Agrobacterium-infiltrated tobacco leaf tissue
From the text: The above described chimeric chloroplast transit peptide sequences were initially tested via a transient in planta assay. Polynucleotide sequences which encode the TraP10 (SEQ ID NO:9), TraP11 (SEQ ID NO:10), TraP17 (SEQ ID NO:11), TraP18 (SEQ ID NO:12), TraP19 (SEQ ID NO:13), TraP26 (SEQ ID NO:14), TraP27 (SEQ ID NO:15), and TraP28 (SEQ ID NO:16), chimeric chloroplast transit peptide sequences were synthesized. A linker sequence (SEQ ID NO:17) was incorporated between the TraP sequence and the yfp coding sequence of TraP10 and TraP11. The resulting constructs contained two plant transcription units (PTU). The first PTU was comprised of the Arabidopsis thaliana Ubiquitin 10 promoter (AtUbi10 promoter; Callis, et al., (1990) J. Biol. Chem., 265: 12486-12493), TraP-yellow fluorescent protein fusion gene (TraP-YFP; US Patent App. 2007/0298412) or the TraP-green fluorescent protein fusion gene (TraP-GFP; Sheen et al., (1995) Plant J., 8(5): 777-84), and Agrobacterium tumefaciens ORF 23 3′ untranslated region (AtuORF23 3′UTR; U.S. Pat. No. 5,428,147). The second PTU was comprised of the Cassava Vein Mosaic Virus promoter (CsVMV promoter; Verdaguer et al., (1996) Plant Molecular Biology, 31: 1129-1139), phosphinothricin acetyl transferase (PAT; Wohlleben et al., (1988) Gene, 70: 25-37) or DSM-II (International Patent App. 2008070845), and Agrobacterium tumefaciens ORF 1 3′ untranslated region (AtuORF1 3′UTR; Huang et al., (1990) J. Bacteriol., 172: 1814-1822). Construct pDAB101979 contains the TraP10 chimeric chloroplast transit peptide (FIG. 3). Construct pDAB101980 contains the TraP11 chimeric chloroplast transit peptide (FIG. 4). Construct pDAB107634 contains the TraP17 chimeric chloroplast transit peptide (FIG. 5). Construct pDAB107635 contains the TraP18 chimeric chloroplast transit peptide (FIG. 6). Construct pDAB107636 contains the TraP19 chimeric chloroplast transit peptide (FIG. 7). Construct pDAB109847 contains the TraP26 chimeric chloroplast transit peptide (FIG. 8). Construct pDAB109848 contains the TraP27 chimeric chloroplast transit peptide (FIG. 9). Construct pDAB109849 contains the TraP28 chimeric chloroplast transit peptide (FIG. 10). […] The constructs were confirmed via restriction enzyme digestion and sequencing. Finally, the constructs were transformed into Agrobacterium tumefaciens and stored as glycerol stocks.
From an Agrobacterium glycerol stock, a loop full of frozen culture was inoculated into 2 ml of Yeast-extract Peptone Dextrose (100 μg/ml spectinomycin) in a 14 ml sterile tube. The inoculated media was incubated at 28° C. overnight with shaking at 200 rpm. The following day about 100 μl of the culture was used to inoculate 25 ml of YPD (100 μg/ml spectinomycin) in a 125 ml sterile tri-baffled flask, and incubated overnight at 28° C. overnight with shaking at 200 rpm. The following day the cultures were diluted to an OD600 of 0.5 in sterile ddH2O (pH 8.0). The diluted Agrobacterium strain was mixed with a second Agrobacterium strain containing the P19 helper protein at a ratio of 1:1. The culture were used for tobacco leaf infiltration via the Voinnet method. Voinnet O, Rivas S, Mestre P, and Baulcombe D, (2003) An enhanced transient expression system in plants based on suppression of gene silencing by the p19 protein of tomato bushy stunt virus. The Plant Journal, 33: 949-956. Infiltrated tobacco plants were placed in a Conviron™ set at 16 hr of light at 24° C. for at least three days until being assayed.
Agrobacterium-infiltrated tobacco leaves were severed from the plant, and placed into a petri-dish with water to prevent dehydration. The infiltrated tobacco leaves were observed under blue light excitation with long-pass filter glasses held in place using a Dark Reader Hand Lamp™ (Clare Chemical Research Co.; Dolores, Colo.) to identify undamaged areas of the leaf that were successfully expressing the YFP or GFP reporter proteins. […]

[2] = test system: infiltrated tobacco cells; assay: Western blot of infiltrated tobacco plants; format: cell-based, Nicotiana tabacum; conditions: infiltrated tobacco leaf tissue
Procedure: Samples of the infiltrated tobacco plants were assayed via Western blotting. Leaf punches were collected and subjected to bead-milling. About 100-200 mg of leaf material was mixed with 2 BBs (Daisy; Rogers, Ark.) and […] of PBST for 3 minutes in a Kleco™ bead mill. The samples were then spun down in a centrifuge at 14,000× g at 4° C. The supernatant was removed and either analyzed directly via Western blot or immunoprecipitated. The immunoprecipitations were performed using the Pierce Direct IP Kit™ (Thermo Scientific; Rockford, Ill.) following the manufacturer's protocol. Approximately, 50 μg of anti-YFP or anti-GFP was bound to the resin. The samples were incubated with the resin overnight at 4° C. Next, the samples were washed and eluted the following morning and prepped for analysis by combining equal volumes of 2×8M Urea sample buffer and then boiling the samples for 5 minutes. The boiled samples were run on a 4-12% SDS-Bis Tris gel in MOPS buffer for 40 minutes. The gel was then blotted using the Invitrogen iBlot™ (Life Technologies; Carlsbad, Calif.) following the manufacturer's protocol. The blotted membrane was blocked for 10 minutes using 5% non-fat dry milk in PBS-Tween® solution. The membrane was probed with the primary antibody (monoclonal anti-GFP or anti-YFP in rabbit) used at a 1:1000 dilution in the 5% non-fat dry milk in PBS-Tween® solution for 1 hour. Next, the membrane was rinsed three times for five minutes with PBS-Tween® to remove all unbound primary antibody. The membrane was probed with a secondary monoclonal anti-rabbit in goat antibody (Life Technologies) used at a 1:1000 dilution, for 60 minutes. The membrane was washed as previously described and developed by adding Themo BCIP/NBT™ substrate. The colormetric substrate was allowed to develop for 5-10 minutes and then the blots were rinsed with water before being dried.

Molecule	protection of Arabidopsis plants from TBW damage (tobacco budworm (TBW))	Cry2Aa protein concentration resulting in less than 30% leaf damage (tobacco budworm (TBW); Arabidopsis events) [ng/cm^2]	Cry2Aa protein level at the 20% leaf damage cut-off point (tobacco budworm (TBW); Arabidopsis events)	protection of Arabidopsis plants from SBL damage (soybean looper (SBL))	minimum Cry2Aa protein expression for lower than 20% leaf damage (soybean looper (SBL); Arabidopsis events)	minimum Cry2Aa protein expression for lower than 30% leaf damage (soybean looper (SBL); Arabidopsis events)	translocation of YFP or GFP fluorescent protein into chloroplasts [1]	translocation of YFP or GFP fluorescent protein into chloroplasts ([1]; listed as TraP11-YFP)	TraP processed and cleaved from the YFP or GFP protein [2]
B1	protected from TBW damage	~1.5	2.0-2.5 ng/cm^2	protected from SBL damage	2.0-2.5 ng/cm^2	about 1.5 ng/cm^2			
B2	provided insect tolerance			provided insect tolerance			accumulated within the chloroplasts; also recorded: successfully targeted YFP to tobacco chloroplasts	translocated into the chloroplasts	processed and cleaved from the YFP or GFP protein
